The supplement of paper PMC10598134
± gives the standard deviation.

Assay: collision cross section of unmodified peptide (TIMS, N2, iRT-aligned); higher = larger / more extended gas-phase ion
How it was run: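 On a timsTOF Pro/HT (dda-PASEF, nitrogen, ~2.4 mbar), synthetic peptide pools were analysed after a 120-min nanoflow C18 separation at 60 °C and identified in MaxQuant. Three reference ions served for 1/K0 calibration, with run-wise alignment to the median iRT peptide deviation. Collision cross section comes from the Mason-Schamp equation, using the most abundant feature per charge state averaged over 1–3 technical replicates.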

Substance	collision cross section (charge state: 2) [Å²]	collision cross section (charge state: 3) [Å²]
GPKGQQGEPGPK	356.26 ± 0.79	451.77 ± 0.63
VDATADYICK	353.92 ± 0.79	
LFVGGIKEDTEEHHLR	486.85 ± 3.6	544.82 ± 2.6
FGDSRGGGGNFGPGPGSNFR		494.59 ± 1.9
GEPGIPAIPGIR	347.87 ± 0.23	
GKLGVPGLPGYPGR	385.87 ± 0.86	480.85 ± 1.2
VHATSTYR	325.88 ± 0.49	398.18 ± 1.6
AQPSASLGVGYR	364.53 ± 0.14	
SGYSSPGSPGTPGSR	379.95 ± 0.14	
DFAFYNPRLQGK	408.01 ± 1.3	473.2 ± 2.9
VNALKNLQVK	370.39 ± 1.1	436.61 ± 6
TSAYGPPTR	322.86 ± 1.6	
FGTINIVHPKLGSYTK	468.97 ± 3	531.6 ± 4.8
VLSIGDGIAR	348.04 ± 0.14	
GADFLVTEVENGGSLGSKK	494.06 ± 6.8	535.68 ± 1.1
GLPGEPGPR	309.4 ± 0.22	
VVPGYGHAVLR	378.3 ± 0.16	449.83 ± 0.86
SGNLTEDDKHNNAK	412.58 ± 1.5	490.18 ± 3.5
LEEVTGKLQVAR	400.35 ± 5.3	475.59 ± 4.3
YGLIFHSTFIGRAAAK		526.88
DYSSGFGGKYGVQADR	432 ± 2.6	489.69 ± 5.9
GRGTSQLAEGATAK	389.78 ± 0.35	463.88 ± 3.2

Substance	collision cross section (charge state: 2) [Å²]	collision cross section (charge state: 3) [Å²]
DDSNLYINVK	367.7 ± 0.74	
AGRGFSLEELR	376.05 ± 0.67	459.45 ± 3.3
FNALFAQGNYSEAAK	435.05 ± 0.49	
GTITVSAQELKDNR	437.3 ± 1.6	507.47 ± 4.6
GSELQNYFTK	364.76 ± 0.54	
ANAIGRGAK	319.32 ± 2.5	
LSQEDPDYGIR	376.56 ± 0.14	
APIISGVTK	322.45 ± 0.15	
LELAQYR	324.63 ± 0.15	
DYGNSPLHR	339.65 ± 0.48	430.38 ± 2
TTEETSKPK	341.31 ± 0.82	430.05 ± 3.7
ALYETELADAR	385.99 ± 0.47	
AAYQAAIRGVGSAQSR	436.77 ± 1.2	509.17 ± 1.3
VQFAPEK	317.04 ± 1.1	
FEGAIYR	317.08 ± 0.15	
DLEEAEEYK	358.42 ± 0.55	
AAGQPYEQHAK	373.09 ± 0.48	423.62 ± 1.7
DLTTAGAVTQCYR	396.98 ± 0.16	489.14
HHAAYVNNLNVTEEK	444.13 ± 2.1	494.31 ± 0.87
GGGYGGDRGGYGGDR	380.24	463.21 ± 0.23
GAPGGRGAQLSVPSPAR	428.52	492.17 ± 0.93
THLGEALAPLSK	380.02 ± 0.67	462.22 ± 1

Substance	collision cross section (charge state: 2) [Å²]	collision cross section (charge state: 3) [Å²]
DASTLQSQKAEGTGDAK	442.88 ± 2.3	495.18 ± 2.5
ALLQAKASGK	343.27 ± 1.1	435.19 ± 4.7
DTPTSAGPNSFNKGK	410.87 ± 2	465.77 ± 5.4
VDIDAPDVSIEGPDAKLK	460.39 ± 2.9	544.84 ± 1.8
VLDSGAPIKIPVGPETLGR	485.73 ± 3	510.9 ± 2.1
GPPGPAGPSGESR	343.88 ± 1	
GAEKTEVAEPR	369.12 ± 1.5	445.67 ± 5
AIEINPDSAQPYK	394.83 ± 1.7	
SGATAGAAGGRGK	361.16 ± 1.5	443.5 ± 4.6
LQIASDENYK	357.85 ± 0.48	
GLPGEKGER	342.99 ± 1.2	394.07 ± 1.2
STLEEPNLQPLQR	408.53 ± 0.66	
LEKDYQPGITFIVVQK	447.32 ± 0.59	488.88 ± 0.86
QQETAAAETETR	373.98 ± 0.14	456.85 ± 0.22
IDLPAENSNSETIIITGKR	488.02	565.88 ± 0.52
YHEDIFGLTLR	388.91 ± 0.75	462.33 ± 2
HGVYNPNK	330.7 ± 0.79	
GHPGPPGPPGEQGLPGLAGK	440.68 ± 1.2	497.21 ± 14
YGRGQLNYPLPDFSK	433.52	510.01 ± 10
FLQEFYQDDELGK	424.29 ± 0.5	
VRFHNPR	337.63 ± 0.7	406.2 ± 6.3
TELLPGDRDNLAIQTR		506.52 ± 0.86

Substance	collision cross section (charge state: 2) [Å²]	collision cross section (charge state: 3) [Å²]
VPGALAAAKAAK	365.46 ± 0.4	442.33 ± 1.2
GPPGPPGR	295.47 ± 0.78	
VEPIHAVVLPRGK	414.74 ± 1.1	483.53 ± 1.8
KDYQPGITFIVVQK		508.05 ± 1.2
DYVSQFEGSALGK	385.54 ± 0.47	
PRGVISTPVIR	371.76 ± 0.55	450.44 ± 3.9
SYGIPYIETSAK	384.66 ± 0.47	
DSSPTTNSKLSALQR	418.1 ± 2.2	485.64 ± 4.2
HIGFVYHPTK	378.19 ± 1.1	450.25 ± 1.7
DLSTVEALQNLKNLK	472.99 ± 2.9	543.69 ± 1.2
VDGDTQTTVEK	367.05 ± 2.3	
TEVNSGFFYK	366.57 ± 0.48	
RLPTTGYLVYR	389.8 ± 0.35	475.19 ± 2.9
VETFSGVYK	332.43 ± 0.59	
AAINQKLIETGER	409.65 ± 1.4	476.29 ± 7.6
GGPGAPGAPGPK	323.76 ± 0.58	
PSIHGGSGGRGVSVSSAR		503.12 ± 0.69
GDPGLIGPK	313.62 ± 1.5	
KVQFAPEK	329.36 ± 0.58	
GERGVPGER	324.16 ± 0.79	410.66 ± 1.3
TLDEILQEKK	375.43 ± 1	432.42 ± 3.6
VNIGQGSHPQKVK	416.89 ± 2.1	469.44 ± 3.7

Substance	collision cross section (charge state: 2) [Å²]	collision cross section (charge state: 3) [Å²]
IQQELQTAKK	374.48 ± 0.53	429.26 ± 3.7
YVGESEANIR	358.37 ± 0.55	
GSGLGARGSSYGVTSTESYK	471.67	515.78 ± 1.1
SGGRGVSVSSAR	352.78 ± 0.057	442.14 ± 3.7
ETTPSSLAVTQTMATK	434.06 ± 0.13	
LEENHYNTYISK	419.55 ± 1	465.19 ± 1.2
IHNAENIQPGEQKYEYK	475.76 ± 2.4	534.89 ± 9.6
TTGFYSGFSEVAEKR	454.17 ± 3.2	530.82 ± 1.6
DYSVTANSK	329.32 ± 0.58	
SPASDTYIVFGEAK	403.4 ± 0.16	478.14 ± 0.9
LAPEYEAAATR	358.54 ± 0.15	432.76 ± 0.89
GLATFPSRGAK	368.08 ± 0.52	445.97 ± 5.5
GTPGKPGPR	311.01 ± 0.77	
VGEFSGANKEK	374.9 ± 0.4	443.03 ± 4.2
ISEILLDHGAPIQAK	447.46 ± 0.13	537.87 ± 1.7
VQGGALEDSQLVAGVAFKK	499.26 ± 4.6	546.92 ± 0.83
APPIDRSILPTAPR	416.59 ± 1.1	492.42 ± 3.4
TSYAQHQQVR	367.57 ± 0.48	444.63 ± 0.86
VRLQTTLR	347.32 ± 0.41	442.81 ± 6.5
